Experimental data from patent US20100333236A1.
Values joined by “and” are separate entries in the source; they are usually repeats but may differ in a detail not shown here. Equal values may be shown once. Read-outs that look alike come from different tables or passages of the source.

Experiments:
Assay in all cases: cell-based or functional assay
[1] = molecular target: serine-like trypsin protease activities from Spodoptera littoralis (cotton leafworm) larval gut extracts (Spodoptera littoralis)
[2] = molecular target: cysteine-like cathepsin-L protease activities from extracts of adults of Tribolium castaneum (red flour beetle) (Tribolium castaneum)
[3] = molecular target: cysteine-like cathepsin-B protease activities from Leptinotarsa decemlineata (Colorado potato beetle) gut extracts (Leptinotarsa decemlineata)
[4] = molecular target: cysteine-like cathepsin-B protease activities from extracts of adults of Acyrthosiphon pisum (pea aphid) (Acyrthosiphon pisum)
[5] = molecular target: serine-like chymotrypsin protease activities from Sesamia nonagrioides (Mediterranean corn borer) larval gut extracts (Sesamia nonagrioides)
[6] = molecular target: cysteine-like cathepsin-L protease activities from Leptinotarsa decemlineata (Colorado potato beetle) gut extracts (Leptinotarsa decemlineata)
[7] = molecular target: cysteine-like cathepsin-L protease activities from extracts of adults of Tetranychus urticae (spider mites) (Tetranychus urticae)
[8] = molecular target: serine-like trypsin protease activities from Ostrinia nubilalis (European corn borer) larval gut extracts (Ostrinia nubilalis)
[9] = molecular target: cysteine-like cathepsin-L protease activities from extracts of adults of Acyrthosiphon pisum (pea aphid) (Acyrthosiphon pisum)
[10] = molecular target: serine-like chymotrypsin protease activities from Spodoptera littoralis (cotton leafworm) larval gut extracts (Spodoptera littoralis)
[11] = molecular target: cysteine-like cathepsin-L protease activities from extracts of adults of Bemisia tabaci (sweetpotato whitefly) (Bemisia tabaci)
[12] = molecular target: serine-like elastase protease activities from Ostrinia nubilalis (European corn borer) larval gut extracts (Ostrinia nubilalis)
[13] = molecular target: serine-like trypsin protease activities from Sesamia nonagrioides (Mediterranean corn borer) larval gut extracts (Sesamia nonagrioides)
[14] = molecular target: serine-like trypsin protease activities from Spodoptera littoralis (cotton leafworm) larval gut extracts (Spodoptera littoralis); remark: listed apart in the source
[15] = molecular target: cysteine-like cathepsin-L protease activities from extracts of adults of Tribolium castaneum (red flour beetle) (Tribolium castaneum); remark: listed apart in the source
[16] = molecular target: cysteine-like cathepsin-B protease activities from Leptinotarsa decemlineata (Colorado potato beetle) gut extracts (Leptinotarsa decemlineata); remark: listed apart in the source
[17] = molecular target: cysteine-like cathepsin-B protease activities from extracts of adults of Acyrthosiphon pisum (pea aphid) (Acyrthosiphon pisum); remark: listed apart in the source
[18] = molecular target: cysteine-like cathepsin-L protease activities from Leptinotarsa decemlineata (Colorado potato beetle) gut extracts (Leptinotarsa decemlineata); remark: listed apart in the source
[19] = molecular target: cysteine-like cathepsin-L protease activities from extracts of adults of Tetranychus urticae (spider mites) (Tetranychus urticae); remark: listed apart in the source
[20] = molecular target: serine-like trypsin protease activities from Ostrinia nubilalis (European corn borer) larval gut extracts (Ostrinia nubilalis); remark: listed apart in the source
[21] = molecular target: serine-like trypsin protease activities from Sesamia nonagrioides (Mediterranean corn borer) larval gut extracts (Sesamia nonagrioides); remark: listed apart in the source
[22] = molecular target: cysteine-like cathepsin-L protease activities from extracts of adults of Acyrthosiphon pisum (pea aphid) (Acyrthosiphon pisum); remark: listed apart in the source
[23] = molecular target: serine-like chymotrypsin protease activities from Spodoptera littoralis (cotton leafworm) larval gut extracts (Spodoptera littoralis); remark: listed apart in the source
[24] = molecular target: cysteine-like cathepsin-L protease activities from extracts of adults of Bemisia tabaci (sweetpotato whitefly) (Bemisia tabaci); remark: listed apart in the source

“AtSerpin1 mutant IKLA (SEQ ID NO:3) (from UniProt Q9S7T8 1-391)” showed a % Inhibition, Trypsin, 1.25 µM serpin [1] of 18%, a % Inhibition, Trypsin, 5 µM serpin [1] of 32% and a % Inhibition, Trypsin, 10 µM serpin [1] of 40%. The % Inhibition, Cathepsin-L, 0.08 µM serpin [2] was 12%, the % Inhibition, Cathepsin-L, 0.16 µM serpin [2] was 32% and the % Inhibition, Cathepsin-L, 0.31 µM serpin [2] was 57%. For the same molecule, the % Inhibition, Cathepsin-L, 0.63 µM serpin [2] was 63%, the % Inhibition, Cathepsin-L, 1.25 µM serpin [2] was 68% and the % Inhibition, Cathepsin-L, 2.5 µM serpin [2] was 68%. For the same molecule, the % Inhibition, Cathepsin-L, 5 µM serpin [2] was 72%, the % Inhibition, Cathepsin-L, 10 µM serpin [2] was 70% and the % Inhibition, Cathepsin-L, 20 µM serpin [2] was 76%. The IC50 of cathepsin-L activity inhibition (FIG. 4) [2] was 0.2 to 0.3 µM, the fold activity against AtSerpin1, cathepsin-L inhibition (FIG. 4) [2] was > 10 times and the % Inhibition, Cathepsin-B, 1.25 µM serpin [3] was 62%. The % Inhibition, Cathepsin-B, 5 µM serpin [3] was 77%, the % Inhibition, Cathepsin-B, 10 µM serpin [3] was 70% and the % Inhibition, Cathepsin-B, 1.25 µM serpin [4] was 24%. It also gave a % Inhibition, Cathepsin-B, 5 µM serpin [4] of 31%, a % Inhibition, Cathepsin-B, 10 µM serpin [4] of 36% and a % Inhibition, Chymotrypsin, 5 µM serpin [5] of 32%. For the same molecule, the % Inhibition, Chymotrypsin, 10 µM serpin [5] was 70%, the % Inhibition, Cathepsin-L, 1.25 µM serpin [6] was 18% and the % Inhibition, Cathepsin-L, 5 µM serpin [6] was 44%. For the same molecule, the % Inhibition, Cathepsin-L, 10 µM serpin [6] was 66%, the % Inhibition, Cathepsin-L, 0.02 µM serpin [7] was 9% and the % Inhibition, Cathepsin-L, 0.04 µM serpin [7] was 11%. For the same molecule, the % Inhibition, Cathepsin-L, 0.08 µM serpin [7] was 12%, the % Inhibition, Cathepsin-L, 0.16 µM serpin [7] was 22% and the % Inhibition, Cathepsin-L, 0.31 µM serpin [7] was 33%. It also gave a % Inhibition, Cathepsin-L, 0.63 µM serpin [7] of 44%, a % Inhibition, Cathepsin-L, 1.25 µM serpin [7] of 51% and a % Inhibition, Cathepsin-L, 2.5 µM serpin [7] of 59%. The % Inhibition, Cathepsin-L, 5 µM serpin [7] was 71%, the % Inhibition, Cathepsin-L, 10 µM serpin [7] was 75% and the % Inhibition, Cathepsin-L, 20 µM serpin [7] was 79%. For the same molecule, the IC50 of cathepsin-L activity inhibition (FIG. 7) [7] was < 1 µM, the fold activity against AtSerpin1, cathepsin-L inhibition (FIG. 7) [7] was 2 times and 3 times and the % Inhibition, Trypsin, 2 µM serpin [8] was 51%. It also gave a % Inhibition, Cathepsin-L, 1.25 µM serpin [9] of 24%, a % Inhibition, Cathepsin-L, 5 µM serpin [9] of 34% and a % Inhibition, Cathepsin-L, 10 µM serpin [9] of 45%. It also gave a % Inhibition, Chymotrypsin, 1.25 µM serpin [10] of 11%, a % Inhibition, Chymotrypsin, 5 µM serpin [10] of 41% and a % Inhibition, Chymotrypsin, 10 µM serpin [10] of 56%. It also gave a % Inhibition, Cathepsin-L, 0.16 µM serpin [11] of 3%, a % Inhibition, Cathepsin-L, 0.31 µM serpin [11] of 10% and a % Inhibition, Cathepsin-L, 0.63 µM serpin [11] of 15%. The % Inhibition, Cathepsin-L, 1.25 µM serpin [11] was 27%, the % Inhibition, Cathepsin-L, 2.5 µM serpin [11] was 38% and the % Inhibition, Cathepsin-L, 5 µM serpin [11] was 48%. The % Inhibition, Cathepsin-L, 10 µM serpin [11] was 60%, the % Inhibition, Cathepsin-L, 20 µM serpin [11] was 70% and the IC50 of cathepsin-L activity inhibition (FIG. 6) [11] was 5 µM. The fold activity against AtSerpin1, cathepsin-L inhibition (FIG. 6) [11] was 5 times and 10 times and the % Inhibition, Elastase, 2 µM serpin [12] was 21%.

“AtSerpin1 mutant IKLK (SEQ ID NO:7) (from UniProt Q9S7T8 1-391)” gave a % Inhibition, Trypsin, 5 µM serpin [1] of 64%, a % Inhibition, Trypsin, 10 µM serpin [1] of 69% and a % Inhibition, Cathepsin-B, 5 µM serpin [4] of 49%. The % Inhibition, Cathepsin-B, 10 µM serpin [4] was 66%.

Work on “AtSerpin1 mutant IRPR (SEQ ID NO:5) (from UniProt Q9S7T8 1-391)” yielded a % Inhibition, Cathepsin-L, 1.25 µM serpin [2] of 73%, a % Inhibition, Cathepsin-B, 1.25 µM serpin [4] of 32% and a % Inhibition, Cathepsin-L, 1.25 µM serpin [7] of 11%. The % Inhibition, Trypsin, 1.25 µM serpin [13] was 38% and the % Inhibition, Cathepsin-L, 1.25 µM serpin [9] was 31%.

“AtSerpin1 mutant VRPR (SEQ ID NO:4) (from UniProt Q9S7T8 1-391)” was tested, and the % Inhibition, Trypsin, 5 µM serpin [1] was 33%, the % Inhibition, Trypsin, 10 µM serpin [1] was 34% and the % Inhibition, Cathepsin-L, 1.25 µM serpin [2] was 38%. The % Inhibition, Cathepsin-B, 1.25 µM serpin [4] was 27%, the % Inhibition, Cathepsin-B, 5 µM serpin [4] was 14% and the % Inhibition, Cathepsin-B, 10 µM serpin [4] was 23%. It also gave a % Inhibition, Cathepsin-L, 1.25 µM serpin [7] of 22% and a % Inhibition, Cathepsin-L, 1.25 µM serpin [9] of 16%.

Work on “AtSerpin1 mutant WRHR (SEQ ID NO:6) (from UniProt Q9S7T8 1-391)” yielded a % Inhibition, Cathepsin-B, 1.25 µM serpin [4] of 26% and a % Inhibition, Cathepsin-L, 1.25 µM serpin [7] of 8%.

B1: AtSerpin1 (wild-type Serpin1 from Arabidopsis thaliana, At1g47710), recombinant HIS6-tagged (protein, not shown: small tags and cut ends)
chain: MDVRESISLQNQVSMNLAKHVITTVSQNSNVIFSPASINVVLSIIAAGSAGATKDQILSFLKFSSTDQLNSFSSEIVSAVLADGSANGGPKLSVANGAWIDKSLSFKPSFKQLLEDSYKAASNQADFQSKAVEVIAEVNSWAEKETNGLITEVLPEGSADSMTKLIFANALYFKGTWNEKFDESLTQEGEFHLLDGNKVTAPFMTSKKKQYVSAYDGFKVLGLPYLQGQDKRQFSMYFYLPDANNGLSDLLDKIVSTPGFLDNHIPRRQVKVREFKIPKFKFSFGFDASNVLKGLGLTSPFSGEEGLTEMVESPEMGKNLCVSNIFHKACIEVNEEGTEAAAASAGVIKLRGLLMEEDEIDFVADHPFLLVVTENITGVVLFIGQVVDPLH
For B1, the % Inhibition, Trypsin, 1.25 µM serpin [14] was 52%, the % Inhibition, Trypsin, 5 µM serpin [14] was 83% and the % Inhibition, Trypsin, 10 µM serpin [14] was 90%. The concentration for 50% inhibition of trypsin activity (fluorometric substrate, FIG. 1) [14] was 1 µM, the % Inhibition, Cathepsin-L, 2.5 µM serpin [15] was 16% and the % Inhibition, Cathepsin-L, 5 µM serpin [15] was 68%. For the same molecule, the % Inhibition, Cathepsin-L, 10 µM serpin [15] was 73%, the % Inhibition, Cathepsin-L, 20 µM serpin [15] was 76% and the IC50 of cathepsin-L activity inhibition (FIG. 4) [15] was 4 µM. The % Inhibition, Cathepsin-B, 1.25 µM serpin [16] was 40%, the % Inhibition, Cathepsin-B, 5 µM serpin [16] was 47% and the % Inhibition, Cathepsin-B, 10 µM serpin [16] was 46%. The concentration for 50% inhibition of cathepsin-B activity (FIG. 3) [16] was > 10 µM, the % Inhibition, Cathepsin-B, 1.25 µM serpin [17] was 50% and the % Inhibition, Cathepsin-B, 5 µM serpin [17] was 55%. It also gave a % Inhibition, Cathepsin-B, 10 µM serpin [17] of 55%, a concentration for 50% inhibition of cathepsin-B activity (FIG. 5) [17] of 1 µM and a % Inhibition, Cathepsin-L, 1.25 µM serpin [18] of 4%. It also gave a % Inhibition, Cathepsin-L, 5 µM serpin [18] of 34%, a % Inhibition, Cathepsin-L, 10 µM serpin [18] of 48% and a concentration for 50% inhibition of cathepsin-L activity (fluorometric substrates, FIG. 3) [18] of 10 µM. It also gave a % Inhibition, Cathepsin-L, 0.16 µM serpin [19] of 10%, a % Inhibition, Cathepsin-L, 0.31 µM serpin [19] of 13% and a % Inhibition, Cathepsin-L, 0.63 µM serpin [19] of 17%. It also gave a % Inhibition, Cathepsin-L, 1.25 µM serpin [19] of 32%, a % Inhibition, Cathepsin-L, 2.5 µM serpin [19] of 48% and a % Inhibition, Cathepsin-L, 5 µM serpin [19] of 58%. The % Inhibition, Cathepsin-L, 10 µM serpin [19] was 67%, the % Inhibition, Cathepsin-L, 20 µM serpin [19] was 73% and the concentration for 50% inhibition of cathepsin-L activity (FIG. 7) [19] was 2 µM. For the same molecule, the % Inhibition, Trypsin, 2 µM serpin [20] was 28%, the % Inhibition, Trypsin, 1.25 µM serpin [21] was 90% and the % Inhibition, Trypsin, 5 µM serpin [21] was 97%. The % Inhibition, Trypsin, 10 µM serpin [21] was 98%, the concentration for 50% inhibition of trypsin activity (FIG. 2) [21] was 0.1 µM and the % Inhibition, Cathepsin-L, 1.25 µM serpin [22] was 42%. For the same molecule, the % Inhibition, Cathepsin-L, 5 µM serpin [22] was 42%, the % Inhibition, Cathepsin-L, 10 µM serpin [22] was 39% and the inhibition of cathepsin-L activity, plateau (FIG. 5) [22] was 40%. The % Inhibition, Chymotrypsin, 1.25 µM serpin [23] was 10%, the % Inhibition, Chymotrypsin, 5 µM serpin [23] was 31% and the % Inhibition, Chymotrypsin, 10 µM serpin [23] was 40%. For the same molecule, the concentration for 50% inhibition of chymotrypsin activity (FIG. 1) [23] was 10 to 20 µM, the % Inhibition, Cathepsin-L, 2.5 µM serpin [24] was 7% and the % Inhibition, Cathepsin-L, 5 µM serpin [24] was 20%. It also gave a % Inhibition, Cathepsin-L, 10 µM serpin [24] of 34%, a % Inhibition, Cathepsin-L, 20 µM serpin [24] of 43% and a % inhibition of cathepsin-L activity at 20 µM serpin (FIG. 6) [24] of 45%.
